The values below come from the Human Domainome abundance scans (Beltran et al. 2025).

B1: Zinc finger MYM-type protein 3, residues 405 to 444; numbered along this chain, Q14202 (parent)
chain: DATRCSICQKTGEVLHEVSNGSVVHRLCSDSCFSKFRANK

± gives the uncertainty stated by the source.

In this series the parent is B1. Kind of series: abundance fitness (aPCA) (normalised: wild type 0, dead -1); higher = more abundant; growth selection in yeast, the domain comes from the species named. Particulars: Homo sapiens.
In the case of DATRCSICQKTGEVLHEVSNGSVVHCLCSDSCFSKFRANK [R26C], the abundance fitness is -0.312 ± 0.1.

Turning to DATRCSICQKTGEVLHEVSNGSVVHQLCSDSCFSKFRANK [R26Q], the abundance fitness is 0.097 ± 0.059. For DATRCSICQKTGEVLHEVSNGSVVHKLCSDSCFSKFRANK [R26K], the abundance fitness stood at 0.013 ± 0.074. As for DATRCSICQKTGEVLHEVSNGSVVHGLCSDSCFSKFRANK [R26G], the figure is -0.117 ± 0.053. Take DATRCSIIQKTGEVLHEVSNGSVVHRLCSDSCFSKFRANK [C8I]: the abundance fitness is -0.978 ± 0.2. On to DATRCSILQKTGEVLHEVSNGSVVHRLCSDSCFSKFRANK [C8L], for which the abundance fitness was -0.843 ± 0.078.

Take DATRCSIVQKTGEVLHEVSNGSVVHRLCSDSCFSKFRANK [C8V]: the abundance fitness is -1.11 ± 0.067. Turning to DATRCSICQNTGEVLHEVSNGSVVHRLCSDSCFSKFRANK [K10N], the abundance fitness was -0.559 ± 0.17. Consider DATRCSICQATGEVLHEVSNGSVVHRLCSDSCFSKFRANK [K10A], for which the abundance fitness is -0.293 ± 0.061.

As to DATRCSICQRTGEVLHEVSNGSVVHRLCSDSCFSKFRANK [K10R], the abundance fitness is -0.098 ± 0.052. As for DATRCSICQFTGEVLHEVSNGSVVHRLCSDSCFSKFRANK [K10F], the figure is -0.595 ± 0.46.

As to DATRCSICQCTGEVLHEVSNGSVVHRLCSDSCFSKFRANK [K10C], the abundance fitness was -0.367 ± 0.07.

For DATRCSICQITGEVLHEVSNGSVVHRLCSDSCFSKFRANK [K10I], the abundance fitness was -0.417 ± 0.11. In the case of DATRCSICQMTGEVLHEVSNGSVVHRLCSDSCFSKFRANK [K10M], the abundance fitness is -0.232 ± 0.083. For DATRCSICQWTGEVLHEVSNGSVVHRLCSDSCFSKFRANK [K10W], the abundance fitness is -0.479 ± 0.06. Turning to DATRCSICQTTGEVLHEVSNGSVVHRLCSDSCFSKFRANK [K10T], the abundance fitness was -0.277 ± 0.079. Regarding DATRCSICQKTHEVLHEVSNGSVVHRLCSDSCFSKFRANK [G12H], the abundance fitness was -0.215 ± 0.079. In the case of DATRCSICQKTWEVLHEVSNGSVVHRLCSDSCFSKFRANK [G12W], the abundance fitness was -0.639 ± 0.074. As to DATRCSICQKTIEVLHEVSNGSVVHRLCSDSCFSKFRANK [G12I], the abundance fitness is -0.21 ± 0.11. The figure for DATRCQICQKTGEVLHEVSNGSVVHRLCSDSCFSKFRANK [S6Q] is -0.285 ± 0.072; for DATRCEICQKTGEVLHEVSNGSVVHRLCSDSCFSKFRANK [S6E] it is -0.103 ± 0.065; for DATRCAICQKTGEVLHEVSNGSVVHRLCSDSCFSKFRANK [S6A] it is 0.104 ± 0.054.

Take DATRCSICQKTGEVLHEVSNGSVVHRLCSDSCFSKQRANK [F36Q]: the abundance fitness was found to be 0.002 ± 0.074. As for DATRCSICQKTGEVLHEVSNGSVVHRLCSDSCESKFRANK [F33E], the figure is 0.175 ± 0.077; as for DATRCSICQKTGEVLHEVSNGSVVHRLCSDSCGSKFRANK [F33G], -0.044 ± 0.05. DATRCSICQKTGEVLHEVSNGSVVHRLCSDSCNSKFRANK [F33N]: the abundance fitness was 0.01 ± 0.15. The figure for DATRCSICQKTGEALHEVSNGSVVHRLCSDSCFSKFRANK [V14A] is -0.173 ± 0.056; for DATRCSICQKTGELLHEVSNGSVVHRLCSDSCFSKFRANK [V14L] it is -0.344 ± 0.056. The figure for DATRCSICQKTGERLHEVSNGSVVHRLCSDSCFSKFRANK [V14R] is -0.374 ± 0.054. The figure for DATRCSICQKTGEVLHEVSNGSVVHRLKSDSCFSKFRANK [C28K] is -0.823 ± 0.097; for DATRCSICQKTGEVLHEVSNGSVVHRLPSDSCFSKFRANK [C28P] it is -0.639 ± 0.083. Turning to DATRCSICQKTGEVLHEVSNGSVVHRLGSDSCFSKFRANK [C28G], the abundance fitness is -0.623 ± 0.054. DATRCSICQKTGEVLHEVSNFSVVHRLCSDSCFSKFRANK [G21F]: the abundance fitness is -0.366 ± 0.17. DATRCSICQKTGEVLHEVSNWSVVHRLCSDSCFSKFRANK [G21W]: the abundance fitness is -0.701 ± 0.07. DATRCSICQKTGEVLHEVSNHSVVHRLCSDSCFSKFRANK [G21H]: the abundance fitness is -0.235 ± 0.17.

Regarding DATRCSICQKTGEVLHEVSNRSVVHRLCSDSCFSKFRANK [G21R], the abundance fitness was -0.354 ± 0.054.

As to DATRCSICQKTGEVLHEVSNLSVVHRLCSDSCFSKFRANK [G21L], the abundance fitness was -0.298 ± 0.054. For the variant DATRCSICQKTGEVLHEVSNQSVVHRLCSDSCFSKFRANK [G21Q], the abundance fitness amounted to 0.043 ± 0.064. As for DATRCSICQKTGEVLHEVSNCSVVHRLCSDSCFSKFRANK [G21C], the abundance fitness was -0.335 ± 0.081. For the variant DATRCSICFKTGEVLHEVSNGSVVHRLCSDSCFSKFRANK [Q9F], the abundance fitness is -0.087 ± 0.075. On to DATRCSICQKTGEVLHEVSQGSVVHRLCSDSCFSKFRANK [N20Q], for which the abundance fitness was -0.004 ± 0.059. In the case of DATRCSICQKTGEVLHEVSWGSVVHRLCSDSCFSKFRANK [N20W], the abundance fitness was -0.415 ± 0.073. For DATRCSICQKTGEVLHEVSRGSVVHRLCSDSCFSKFRANK [N20R], the abundance fitness was -0.135 ± 0.057. DATRCSICQKTGEVLHEVSMGSVVHRLCSDSCFSKFRANK [N20M]: the abundance fitness is -0.001 ± 0.072. In the case of DATRCSICQKTGEVLHEVSPGSVVHRLCSDSCFSKFRANK [N20P], the abundance fitness was -0.559 ± 0.067. As for DATRCSICQKTGEVLHEVSGGSVVHRLCSDSCFSKFRANK [N20G], the figure is -0.21 ± 0.052. On to DATGCSICQKTGEVLHEVSNGSVVHRLCSDSCFSKFRANK [R4G], for which the abundance fitness is -0.219 ± 0.051.

On to DATNCSICQKTGEVLHEVSNGSVVHRLCSDSCFSKFRANK [R4N], for which the abundance fitness came to 0.122 ± 0.081. The figure for DATMCSICQKTGEVLHEVSNGSVVHRLCSDSCFSKFRANK [R4M] is 0.047 ± 0.058; for DATRCSICQKTGEVLHEVSNGSVVHRLCSDSCFSKFRANT [K40T] it is 0.138 ± 0.066. The figure for DATRCSICQKTGEVLHEVSNGSVVHRLCSDSCFSKFRANA [K40A] is -0.047 ± 0.11. Turning to DATRCSICQKTGEVLHEQSNGSVVHRLCSDSCFSKFRANK [V18Q], the abundance fitness is -0.243 ± 0.063. As for DATRCSICQKTGEVLHEPSNGSVVHRLCSDSCFSKFRANK [V18P], the figure is -0.258 ± 0.06; as for DATRCSICQKTGEVLHEVSNGSVVHRLCSDSCFEKFRANK [S34E], 0.32 ± 0.062; as for DATRCSICQKTGEVLHEVSNGSVVHRLCSDSCFQKFRANK [S34Q], 0.382 ± 0.083. Consider DATRCSICQKTGEVLHEVSNGSVVHRLCSDSCFMKFRANK [S34M], for which the abundance fitness was -0.039 ± 0.17. As for DATRCSICQKTGEVLHEVSNGSVVHRLCSDSCFGKFRANK [S34G], the figure is 0.137 ± 0.053. As to DATRCSICQKTGEVLHEVSNGSVVHRFCSDSCFSKFRANK [L27F], the abundance fitness is -0.019 ± 0.15. Consider DATRCSICQKTGEVLHEVSNGSVVHRWCSDSCFSKFRANK [L27W], for which the abundance fitness is -0.205 ± 0.056.

For DATRCSICQKTGEVLHIVSNGSVVHRLCSDSCFSKFRANK [E17I], the abundance fitness is -0.458 ± 0.091. For DATRCSICQKTGEVLHAVSNGSVVHRLCSDSCFSKFRANK [E17A], the abundance fitness is -0.759 ± 0.068. With DATRCSICQKTGEVLHEVSNGSYVHRLCSDSCFSKFRANK [V23Y], the abundance fitness is -0.166 ± 0.077. For DATRCSICQKTGEVLHEVSNGSMVHRLCSDSCFSKFRANK [V23M], the abundance fitness was found to be 0.13 ± 0.079.
